Key:
[1] = test system: ^177Lu-octreotide PRRT kidney damage mouse model; test: Short-term radioprotection of kidneys with A1M in PRRT (^177Lu-octreotide PRRT kidney damage mouse model)
Description: NB, ^177Lu-DOTATATE and A1M are injected separately at T=0. Analytic Methods:
The mice were left for 1 day or 8 days, and then sacrificed with sampling of plasma and urine, as described above.

[2] = patients treated with PRRT; cited from earlier work
[3] = mouse, in vivo, iv
Description: Organ-specific uptake values were calculated as percent injected activity per gram of tissue (% IA/g) or percent injected activity (% IA).

[4] = SDS-PAGE / Western blotting of injected non-labelled A1M in kidneys and serum; assay type: in vivo, NMRI mice
Description: SDS-PAGE analysis was performed on kidneys and serum from animals that had been injected i.v. with non-labeled A1M (100 μl/animal, 1.5 mg/ml). Animals were terminated at 10, 20 and 60 minutes post-injection, blood and kidneys were sampled and kidneys were washed and placed in 1 ml PBS. Following mechanical tissue homogenization, tissue was centrifuged at 10,000×g for 10 minutes and supernatant was transferred to a new tube and used for further analysis as describe below. Serum was obtained from the blood samples by centrifugation at 1,000×g for 10 minutes. SDS-PAGE gels were run under reducing conditions and the separated proteins were transferred to polyvinylidene difluoride (PVDF) membranes (Immobilon-P, Millipore, Bedford, Mass., USA) using Trans-Blot Turbo transfer system (Bio-Rad, Delaware, USA). […] The membranes were developed using a ChemiDoc MP Imaging system (BioRad).

[5] = Immunohistochemistry and confocal fluorescence microscopy of A1M and octreotide-647 in kidney sections; design: species or system mice; conditions: mouse, in vivo
Description: However, only wild-type data are included. After euthanization, kidneys were removed directly frozen and embedded in Tissue Tec. […] Serial sectioning was performed, collecting 3-4 sections per slide, of which adjacent slides were used for either chromogen immunohistochemistry (IHC) or immunofluorescence (IF) labeling. Sections were post-fixed in 4% paraformaldehyde (PFA, Sigma, St. Louis, Mo., USA, dissolved in PBS, 0.1 M, pH 7.4) for 15 minutes, and rinsed in PBS two times for 5 minutes. For single labeling of […], sections were incubated with 0.03% hydrogen peroxide (H2O2, Merck, Darmstadt, Germany) for five minutes for chromogen visualization (IHC). For both chromogen and fluorescence visualization sections were incubated with 1% bovine serum albumin (BSA, Sigma, St. Louis, Mo., USA; diluted in PBS) for 30 minutes. Sections were then incubated with rabbit anti-human […] […] The choices of optical sections and scan depths were determined from the centre position of the majority of nuclei (DAPI labeling) in the scanned field. Sequential scanning was performed of channels displaying AF488, HiLyte Fluor 647, DAPI and Texas Red fluorescence. For each channel the renal profile with the highest fluorescence intensities was selected as a reference, from which the acquisition settings (laser power, PMT detector gain, digital offset) were optimized and used for all scanned areas. […]

[6] = from blood stream; cited from earlier work
[7] = in vivo, iv

## C[C@@H](O)[C@H](NC(=O)[C@@H]1CSSC[C@H](NC(=O)[C@@H](Cc2ccccc2)NC(=O)CN2CCN(CC(=O)[O-])CCN(CC(=O)[O-])CCN(CC(=O)[O-])CC2)C(=O)N[C@@H](Cc2ccc(O)cc2)C(=O)N[C@H](Cc2c[nH]c3ccccc23)C(=O)N[C@@H](CCCCN)C(=O)N[C@@H]([C@@H](C)O)C(=O)N1)C(=O)O.[177Lu+3] [^177Lu-DOTATATE, ^177Lu-DOTA0, Tyr3]octreotate, reference compound]
[1]; 150 MBq, after 1 and 8 days
  plasma creatinine levels (marker of GFR) versus control: significantly increased
[1]; 150 MBq, after 1 and 8 days, more pronounced after 1 day
  albumin concentrations in urine (proteinuria) versus control: significantly elevated
[2]
  creatinine clearance loss: 3.8 % per year

B1: α1-microglobulin (protein, listed as Homo sapiens)
chain: MHHHHHHHHGGGGGIEGRGPVPTPPDNIQVQENFNISRIYGKWYNLAIGSTCPWLKKIMDRMTVSTLVLGEGATEAEISMTSTRWRKGVCEETSGAYEKTDTDGKFLYHKSKWNITMESYVVHTNYDEYAIFLTKKFSRHHGPTITAKLYGRAPQLRETLLQDFRVVAQGVGIPEDSIFTMADRGECVPGEQEPEPILIPR
notes: Recombinant human A1M expressed in E. coli
[3]
  maximum of injected substance found per gram kidney tissue: 76%
  time of maximum (peak) uptake in the kidneys post-injection: 10 min
[4]; 10, 20 and 60 minutes post-injection, 150 μg A1M i.v.
  state of A1M found in blood and kidneys: intact, full-length
[4]; Western blot, 10, 20 and 60 minutes post-injection
  time of highest amounts of A1M in kidneys and serum: 10 min
[4]; kidneys, i.v. injection
  time post-injection up to which A1M is intact, full-length: ≥ 60 min
[5]
  fluorescence detection in kidney at 4 hours p.i.: significant decrease
[1]; 150 μg A1M + 150 MBq 177Lu-DOTATATE, 1 and 8 days, highly significant after 8 days (P<0.01)
  GFR (plasma creatinine) on simultaneous infusion of A1M: restored the GFR to control levels
[1]; 150 μg A1M + 150 MBq 177Lu-DOTATATE, 1 day
  proteinuria (urine albumin) on simultaneous A1M-treatment, after 1 day: significantly reduced
[1]; 150 μg A1M + 150 MBq 177Lu-DOTATATE, 8 days
  significantly reduced proteinuria (urine albumin) on simultaneous A1M-treatment, after 8 days: not
[6]
  T½ of transport across the vessel walls to the extravascular compartment: 2 to 3 min

B2: ^125I-A1M: Recombinant human A1M radiolabelled with 125I using the chloramine T method (protein, UniProt P02760 20-203, looked up)
Alpha-1-microglobulin: GPVPTPPDNIQVQENFNISRIYGKWYNLAIGSTCPWLKKIMDRMTVSTLVLGEGATEAEISMTSTRWRKGVCEETSGAYEKTDTDGKFLYHKSKWNITMESYVVHTNYDEYAIFLTKKFSRHHGPTITAKLYGRAPQLRETLLQDFRVVAQGVGIPEDSIFTMADRGECVPGEQEPEPILIPRV
modifications: Alpha-1-microglobulin 125I radiolabel
[3]
  time of maximum (peak) uptake in the kidneys post-injection: 20 min
  uptake in the kidneys (biodistribution): High uptake
[7]
  fraction of i.v. administered substance localized in kidneys: > 30%
